Assays:
FcRn (human) = FcRn (human) (UniProt P55899)
FcγRI (CD64) (human) = FcγRI (CD64) (human) (UniProt P12314)
FcγRIIIa (CD16a) (human) = FcγRIIIa (CD16a) (human) (UniProt P08637)
FcγRIIa (CD32a) (human) = FcγRIIa (CD32a) (human) (UniProt P12318)
[1] = biological target: FcγRIIb/c (CD32b/c) (human) (UniProt P31994)
[2] = biological target: diphtheria toxin (target of Diphteria antitoxin) (UniProt P00588); assay: specific antibody content of the polyclonal IgG preparation; assay not described
[3] = biological target: parvovirus antigen (target of Parvovirus-Ab); assay: as above

Sequence of UniProt P00588 (P00588 33-567 limits assumed): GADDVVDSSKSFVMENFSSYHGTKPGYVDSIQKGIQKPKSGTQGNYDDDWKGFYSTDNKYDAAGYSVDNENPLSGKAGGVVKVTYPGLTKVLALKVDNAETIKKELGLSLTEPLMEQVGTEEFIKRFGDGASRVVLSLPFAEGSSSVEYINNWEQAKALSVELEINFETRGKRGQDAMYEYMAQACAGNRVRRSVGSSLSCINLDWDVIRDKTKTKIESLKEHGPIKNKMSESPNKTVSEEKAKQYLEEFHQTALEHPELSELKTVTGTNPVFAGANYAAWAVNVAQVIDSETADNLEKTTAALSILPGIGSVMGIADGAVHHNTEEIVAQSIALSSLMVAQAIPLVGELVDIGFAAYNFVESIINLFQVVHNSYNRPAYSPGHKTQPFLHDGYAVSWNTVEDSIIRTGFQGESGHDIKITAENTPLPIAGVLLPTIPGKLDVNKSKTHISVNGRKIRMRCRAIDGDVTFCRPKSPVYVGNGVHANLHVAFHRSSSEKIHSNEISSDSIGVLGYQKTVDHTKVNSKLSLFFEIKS

IgG (Hizentra) (antibody)
Kd (FcRn (human)): 1 nM
koff (FcRn (human)): 0.0025 s⁻¹
kon (FcRn (human)): 2.5e+06 M⁻¹ s⁻¹
Kd (FcγRI (CD64) (human)): 19.7 nM
koff (FcγRI (CD64) (human)): 0.0017 s⁻¹
kon (FcγRI (CD64) (human)): 87000 M⁻¹ s⁻¹
Kd (FcγRIIIa (CD16a) (human)): 496 nM
koff (FcγRIIIa (CD16a) (human)): 0.036 s⁻¹
kon (FcγRIIIa (CD16a) (human)): 73000 M⁻¹ s⁻¹
Kd (FcγRIIa (CD32a) (human)): 213 nM
koff (FcγRIIa (CD32a) (human)): 0.055 s⁻¹
kon (FcγRIIa (CD32a) (human)): 260000 M⁻¹ s⁻¹
Kd [1]: 2700 nM
Diphteria antitoxin (IU/mL) [2]: 18.1 IU/mL
Parvovirus-Ab (IU/mL) ([3]; original Hizentra formulation): 595 IU/mL
Parvovirus-Ab (IU/mL) ([3]; re-formulated Hizentra): 509 IU/mL

Reference: patent publication US20220062405A1
